Test [1] addresses T1, human FcγRIIb (human, UniProt P31994 43-217, limits assumed).
T1 construct: also called FcgRIIb; FcγIIB
T1 sequence: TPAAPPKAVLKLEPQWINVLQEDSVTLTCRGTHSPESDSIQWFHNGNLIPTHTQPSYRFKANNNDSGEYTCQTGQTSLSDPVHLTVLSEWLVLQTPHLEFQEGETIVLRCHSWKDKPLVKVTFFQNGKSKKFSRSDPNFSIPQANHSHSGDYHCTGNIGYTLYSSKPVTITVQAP
The test can be described thus: SPR (Biacore), antibody captured, FcγR as analyte.

Test [2] addresses T2, human FcγRIIa(R) (human, UniProt P12318 36-217).
T2 construct: also called FcgRIIaR; FcγRIIa type R
T2 chain: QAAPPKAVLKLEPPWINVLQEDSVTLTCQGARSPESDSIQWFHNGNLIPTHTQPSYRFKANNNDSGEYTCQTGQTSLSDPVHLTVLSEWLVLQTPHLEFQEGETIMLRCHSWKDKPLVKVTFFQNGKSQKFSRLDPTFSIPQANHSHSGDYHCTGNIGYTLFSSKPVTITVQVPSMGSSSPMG
The experiment in a line: SPR (Biacore), captured antibody, FcγR analyte; bound/captured amount vs control x100.

For test [3], the target named is T3, mouse FcγRIIb (mouse, UniProt P08101 40-217, limits assumed).
T3 construct: Bought; also called mFcgRIIb
T3 sequence (looked up): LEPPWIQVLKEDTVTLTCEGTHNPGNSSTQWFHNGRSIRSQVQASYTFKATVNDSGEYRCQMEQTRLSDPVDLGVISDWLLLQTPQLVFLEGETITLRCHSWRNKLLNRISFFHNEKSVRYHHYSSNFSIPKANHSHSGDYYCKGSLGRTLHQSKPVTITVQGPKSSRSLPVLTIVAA
The experiment in a line: SPR (Biacore), protein L capture, pH 7.4, 25 C.

Test [4] has as its target T4, mouse FcγRIII (mouse, UniProt P08508 31-215).
T4 construct: Bought; also called mFcgRIII
T4 sequence (looked up): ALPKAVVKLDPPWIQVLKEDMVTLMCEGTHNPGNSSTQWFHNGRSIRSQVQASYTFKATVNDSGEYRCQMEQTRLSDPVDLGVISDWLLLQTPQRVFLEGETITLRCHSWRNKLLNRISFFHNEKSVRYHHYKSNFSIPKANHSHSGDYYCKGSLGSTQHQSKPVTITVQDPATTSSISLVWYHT
The experiment in a line: SPR (Biacore), protein L capture, pH 7.4, 25 C.

Test [5] deals with T5, mouse FcγRI (mouse, UniProt P26151 25-297).
T5 construct: Bought; also called mFcgRI
T5 sequence (looked up): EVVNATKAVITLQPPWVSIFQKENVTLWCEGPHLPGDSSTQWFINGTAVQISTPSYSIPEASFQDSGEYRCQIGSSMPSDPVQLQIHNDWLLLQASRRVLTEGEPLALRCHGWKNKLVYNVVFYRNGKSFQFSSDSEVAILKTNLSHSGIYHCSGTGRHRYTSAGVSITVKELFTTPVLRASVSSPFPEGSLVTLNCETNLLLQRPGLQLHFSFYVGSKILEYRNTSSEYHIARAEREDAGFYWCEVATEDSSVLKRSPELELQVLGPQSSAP
The experiment in a line: SPR (Biacore), protein L capture, pH 7.4, 25 C.

In test [6] the target is T6, human FcRn (soluble human FcRn complexed with β2-microglobulin) (human, UniProt P61769 21-119).
T6 construct: also called hFcRn
The experiment in a line: Biacore SPR, pH 7.0, 25 C; antibody captured by Protein L, human FcRn as analyte.

In test [7] the target is T6, human FcRn (soluble human FcRn …). Described as above. This is another data set of the same source.
In test [8] the target is T7, human FcγRIIa(H) (human, UniProt P12318 36-217).
T7 construct: also called hFcgRIIa(H); FcγRIIa type H
T7 sequence: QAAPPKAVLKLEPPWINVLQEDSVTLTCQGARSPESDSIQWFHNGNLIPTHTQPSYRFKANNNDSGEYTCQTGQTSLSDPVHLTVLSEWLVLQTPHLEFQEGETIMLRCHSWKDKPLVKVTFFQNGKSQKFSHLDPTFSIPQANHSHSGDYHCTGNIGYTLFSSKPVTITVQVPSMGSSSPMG
The experiment in a line: SPR (Biacore T100), antibody captured by Protein A, FcγR at 2 µmol/L, 25 C.

Test [9] concerns the target T8, human FcγRIIIa(F) (human, UniProt P08637 17-208, limits assumed).
T8 construct: also called hFcgRIIIa(F)
The description is as above.

For test [10], the target named is T9, human FcγRIIb (human, UniProt P31994 43-217, limits assumed).
T9 construct: also called hFcgRIIb
T9 sequence: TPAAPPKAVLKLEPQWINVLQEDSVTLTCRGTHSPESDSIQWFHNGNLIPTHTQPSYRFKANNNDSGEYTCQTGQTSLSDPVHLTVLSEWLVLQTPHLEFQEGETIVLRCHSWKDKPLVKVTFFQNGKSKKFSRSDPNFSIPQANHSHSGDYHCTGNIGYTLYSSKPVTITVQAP
The test can be described thus: SPR (Biacore) KD; ratio against the KD for FcγRIIaH.

For test [11], the target named is T9, human FcγRIIb. The test can be described thus: SPR (Biacore) KD; ratio against the KD for FcγRIIaR.

Read-outs that look alike come from different tables or passages of the source.

T6 sequence (chain, as listed by the source limits assumed, chain 1 of 2): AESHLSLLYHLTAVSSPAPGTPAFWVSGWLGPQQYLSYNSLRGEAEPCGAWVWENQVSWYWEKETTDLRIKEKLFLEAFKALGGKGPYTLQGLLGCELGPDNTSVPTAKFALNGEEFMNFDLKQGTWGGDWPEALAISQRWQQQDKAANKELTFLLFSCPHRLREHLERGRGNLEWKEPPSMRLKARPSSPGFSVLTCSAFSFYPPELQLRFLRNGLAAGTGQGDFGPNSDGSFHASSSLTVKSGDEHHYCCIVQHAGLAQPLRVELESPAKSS
T6 sequence (P61769 21-119 limits assumed, chain 2 of 2): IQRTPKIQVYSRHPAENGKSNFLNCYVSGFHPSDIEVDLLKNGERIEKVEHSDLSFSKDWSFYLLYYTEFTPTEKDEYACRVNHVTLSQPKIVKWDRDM
T8 sequence (P08637 other isoform, or with tags, fused parts or gaps limits assumed): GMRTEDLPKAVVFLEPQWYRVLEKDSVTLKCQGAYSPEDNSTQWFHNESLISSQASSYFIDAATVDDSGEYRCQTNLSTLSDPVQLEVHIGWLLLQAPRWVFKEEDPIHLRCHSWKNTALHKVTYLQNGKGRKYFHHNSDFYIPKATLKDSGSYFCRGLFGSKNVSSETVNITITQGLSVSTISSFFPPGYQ

B1: GpH7-B3 D270W / GpL16-k0 (antibody, human IgG1)
heavy: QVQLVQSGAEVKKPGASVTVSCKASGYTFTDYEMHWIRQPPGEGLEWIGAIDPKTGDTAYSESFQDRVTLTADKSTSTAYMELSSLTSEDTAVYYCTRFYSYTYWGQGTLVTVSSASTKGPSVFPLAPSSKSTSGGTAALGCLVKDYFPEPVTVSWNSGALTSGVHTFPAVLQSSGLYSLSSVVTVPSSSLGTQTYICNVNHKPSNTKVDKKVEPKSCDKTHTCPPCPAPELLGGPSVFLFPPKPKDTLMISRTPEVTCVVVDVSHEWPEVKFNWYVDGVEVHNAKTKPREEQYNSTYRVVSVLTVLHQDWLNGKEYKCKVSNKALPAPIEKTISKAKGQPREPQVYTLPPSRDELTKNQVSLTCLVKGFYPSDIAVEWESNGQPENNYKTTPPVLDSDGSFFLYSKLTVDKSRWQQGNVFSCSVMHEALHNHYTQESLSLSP
light: DIVMTQSPLSLPVTPGEPASISCQASESLVHSNRNTYLHWYLQKPGQSPQLLIYKVSNRFSGVPDRFSGSGSGTDFTLKISRVEAEDVGVYYCSQNTHVPPTFGQGTKVEIE
notes: B3 variant: anti-glypican-3 IgG1 (constant region B3 = G1d with K439E) with one substitution, EU numbering; also called B3 variant D270W; copies: 2 + 2
As to B1, in test [1], the “relative binding activity (amount bound / amount bound by GpH7-B3/GpL16-k0 x100)” value is -2 % of GpH7-B3/GpL16-k0.

B2: GpH7-B3 S239R/GpL16-k0 (antibody, human IgG1)
heavy: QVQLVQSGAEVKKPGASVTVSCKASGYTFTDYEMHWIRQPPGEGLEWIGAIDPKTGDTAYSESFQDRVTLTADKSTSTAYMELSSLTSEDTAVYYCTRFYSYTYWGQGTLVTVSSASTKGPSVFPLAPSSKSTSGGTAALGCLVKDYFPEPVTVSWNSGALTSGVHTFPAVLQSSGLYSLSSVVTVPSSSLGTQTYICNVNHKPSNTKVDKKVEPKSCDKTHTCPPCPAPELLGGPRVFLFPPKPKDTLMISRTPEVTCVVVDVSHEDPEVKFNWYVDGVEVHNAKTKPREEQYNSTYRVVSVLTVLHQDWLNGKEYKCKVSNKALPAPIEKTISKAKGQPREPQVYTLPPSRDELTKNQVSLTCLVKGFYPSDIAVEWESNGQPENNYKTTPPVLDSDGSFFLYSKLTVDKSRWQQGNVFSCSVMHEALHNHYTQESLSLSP
light: DIVMTQSPLSLPVTPGEPASISCQASESLVHSNRNTYLHWYLQKPGQSPQLLIYKVSNRFSGVPDRFSGSGSGTDFTLKISRVEAEDVGVYYCSQNTHVPPTFGQGTKVEIE
notes: B3 variant of anti-glypican-3 IgG1; substitution in EU numbering; also called B3 variant
As for B2, the relative binding activity in [2] was 8 % of GpH7-B3/GpL16-k0.

B3: GpH7-B3 G237P/GpL16-k0 (antibody, human IgG1)
heavy: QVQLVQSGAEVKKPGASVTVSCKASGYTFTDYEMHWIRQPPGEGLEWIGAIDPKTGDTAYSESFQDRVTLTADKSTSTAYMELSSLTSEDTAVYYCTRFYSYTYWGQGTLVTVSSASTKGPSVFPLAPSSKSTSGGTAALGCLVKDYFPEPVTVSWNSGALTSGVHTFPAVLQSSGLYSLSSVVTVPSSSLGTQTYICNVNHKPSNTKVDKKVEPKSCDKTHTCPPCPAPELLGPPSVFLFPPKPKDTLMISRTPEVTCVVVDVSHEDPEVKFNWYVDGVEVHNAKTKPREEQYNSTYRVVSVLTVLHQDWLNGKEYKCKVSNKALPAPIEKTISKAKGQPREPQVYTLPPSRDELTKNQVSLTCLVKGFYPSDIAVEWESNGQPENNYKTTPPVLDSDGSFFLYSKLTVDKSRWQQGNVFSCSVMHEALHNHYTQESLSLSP
light: DIVMTQSPLSLPVTPGEPASISCQASESLVHSNRNTYLHWYLQKPGQSPQLLIYKVSNRFSGVPDRFSGSGSGTDFTLKISRVEAEDVGVYYCSQNTHVPPTFGQGTKVEIE
notes: as for B2
With B3, in test [2], the relative binding activity is 8 % of GpH7-B3/GpL16-k0.

B4: mPM1-mIgG1-mF39 (antibody)
heavy: DVQLQESGPVLVKPSQSLSLTCTVTGYSITSDHAWSWIRQFPGNKLEWMGYISYSGITTYNPSLKSRISITRDTSKNQFFLQLNSVTTGDTSTYYCARSLARTTAMDYWGQGTSVTVSSAKTTPPSVYPLAPGSAAQTNSMVTLGCLVKGYFPEPVTVTWNSGSLSSGVHTFPAVLQSDLYTLSSSVTVPSSTWPSETVTCNVAHPASSTKVDKKIVPRDCGCKPCICTVKEVSKVFIFPPKPKDVLYITLEPKVTCVVVDISKDDPEVQFSWFVDDVEVHTAQTQPREEQFNSTFRSVSELPIMHQDWLNGKEFKCRVNSAAFPAPIEKTISKTKGRPKAPQVYTIPPPKEQMAKDKVSLTCMITDFFPEDITVEWQWNGQPAENYKNTQPIMDTDGSYFVYSKLNVQKSNWEAGNTFTCSVLHEGLKNHHTEKSLSHSPGK
light: DIQMTQTTSSLSASLGDRVTISCRASQDISSYLNWYQQKPDGTIKLLIYYTSRLHSGVPSRFSGSGSGTDYSLTINNLEQEDIATYFCQQGNTLPYTFGGGTKLEIKRADAAPTVSIFPPSSEQLTSGGASVVCFLNNFYPKDINVKWKIDGSERQNGVLNSWTDQDSKDSTYSMSSTLTLTKDEYERHNSYTCEATHKTSTSPIVKSFNRNEC
notes: copies: 2 + 2
As to B4, the binding result in [3], in test [4] and in test [5] was “no binding” throughout.

B5: mPM1-mIgG1-mF40 (antibody)
heavy: DVQLQESGPVLVKPSQSLSLTCTVTGYSITSDHAWSWIRQFPGNKLEWMGYISYSGITTYNPSLKSRISITRDTSKNQFFLQLNSVTTGDTSTYYCARSLARTTAMDYWGQGTSVTVSSAKTTPPSVYPLAPGSAAQTNSMVTLGCLVKGYFPEPVTVTWNSGSLSSGVHTFPAVLQSDLYTLSSSVTVPSSTWPSETVTCNVAHPASSTKVDKKIVPRDCGCKPCICTVKEVSKVFIFPPKPKDVLYITLEPKVTCVVVDISKDDPEVQFSWFVDDVEVHTAQTQPREEQFNSTFRSVSELPIMHQDWLNGKEFKCRVNSAAFPAPIEKTISKTKGRPKAPQVYTIPPPKEQMAKDKVSLTCMITDFFPEDITVEWQWNGQPAENYKNTQPIMDTDGSYFVYSKLNVQKSNWEAGNTFTCSVLHEGLHWHHTEKSLSHSPGK
light: DIQMTQTTSSLSASLGDRVTISCRASQDISSYLNWYQQKPDGTIKLLIYYTSRLHSGVPSRFSGSGSGTDYSLTINNLEQEDIATYFCQQGNTLPYTFGGGTKLEIKRADAAPTVSIFPPSSEQLTSGGASVVCFLNNFYPKDINVKWKIDGSERQNGVLNSWTDQDSKDSTYSMSSTLTLTKDEYERHNSYTCEATHKTSTSPIVKSFNRNEC
notes: copies: 2 + 2
Take B5: the binding result in [3], in test [4] and in test [5] was “no binding” in each case.

B6: IgG1-F79 (antibody, name in EU numbering)
heavy: QVQLQESGPGLVKPSETLSLTCAVSGHSISHDHAWSWVRQPPGEGLEWIGFISYSGITNYNPSLQGRVTISRDNSKNTLYLQMNSLRAEDTAVYYCARSLARTTAMDYWGEGTLVTVSSASTKGPSVFPLAPSSKSTSGGTAALGCLVKDYFPEPVTVSWNSGALTSGVHTFPAVLQSSGLYSLSSVVTVPSSSLGTQTYICNVNHKPSNTKVDKKVEPKSCDKTHTCPPCPAPELLGGPSVFLFPPKPKDTLMITREPEVTCVVVDVSHEDPEVKFNWYVDGVEVHNAKTKPREEQYNSTYRVVSVLTVLHQDWLNGKEYKCKVSNKALPAPIEKTISKAKGQPREPQVYTLPPSRDELTKNQVSLTCLVKGFYPSDIAVEWESNGQPENNYKTTPPVLDSDGSFFLYSKLTVDKSRWQQGNVFSCSVMHEALHAHYTQKSLSLSP
light: not shown
notes: VH3-IgG1 Fc variant; EU numbering
The molecule B6 yielded a Kd in [6] of 5.9 µM.

B7: IgG1-F207 (antibody, name in EU numbering)
heavy: QVQLQESGPGLVKPSETLSLTCAVSGHSISHDHAWSWVRQPPGEGLEWIGFISYSGITNYNPSLQGRVTISRDNSKNTLYLQMNSLRAEDTAVYYCARSLARTTAMDYWGEGTLVTVSSASTKGPSVFPLAPSSKSTSGGTAALGCLVKDYFPEPVTVSWNSGALTSGVHTFPAVLQSSGLYSLSSVVTVPSSSLGTQTYICNVNHKPSNTKVDKKVEPKSCDKTHTCPPCPAPELLGGPSVFLFPPKPKDTLYISRTPEVTCVVVDVSHEDPEVKFNWYVDGVEVHNAKTKPREEQYNSTYRVVSVLKVLHQDWLNGKEYKCKVSNKALPAPIEKTISKAKGQPREPQVYTLPPSRDELTKNQVSLTCLVKGFYPSDIAVEWESNGQPENNYKTTPPVLDSDGSFFLYSKLTVDKSRWQQGNVFSCSVMHEALHYHYTQKSLSLSP
light: not shown
notes: as for B6
Molecule B7 registered a Kd in [7] of 0.94 µM.

B8: IgG1-v2 (antibody)
heavy: not shown
light: DIQMTQSPSSLSASVGDRVTITCRASQDISSYLNWYQQKPGKAPKLLIYYTSRLHSGVPSRFSGSGSGTDFTFTISSLQPEDIATYYCQQGNTLPYTFGQGTKVEIK
notes: copies: 2 + 2
As for B8, the “binding (RU)” value in [8] was ~10 RU; in test [9], ~5 RU.

B9: IL6R-F11/IL6R-L (antibody, human IgG1)
heavy: not shown
light: DIQMTQSPSSLSASVGDRVTITCRASQDISSYLNWYQQKPGKAPKLLIYYTSRLHSGVPSRFSGSGSGTDFTFTISSLQPEDIATYYCQQGNTLPYTFGQGTKVEIK
notes: copies: 2 + 2
As for B9, the “KD value for FcγRIIaH/KD value for FcγRIIb” value in [10] turned out to be 0.7. Besides, the “KD value for FcγRIIaR/KD value for FcγRIIb” value in test [11] was found to be 0.7.

B10: IL6R-B3/IL6R-L (antibody, human IgG1)
heavy: not shown
light: DIQMTQSPSSLSASVGDRVTITCRASQDISSYLNWYQQKPGKAPKLLIYYTSRLHSGVPSRFSGSGSGTDFTFTISSLQPEDIATYYCQQGNTLPYTFGQGTKVEIK
notes: copies: 2 + 2
Consider B10, for which the “KD value for FcγRIIaH/KD value for FcγRIIb” value in [10] amounted to 0.2. The “KD value for FcγRIIaR/KD value for FcγRIIb” value in test [11] stood at 0.3.

The values are drawn from US20140105889A1 (published 2014).
